Columns and labels:
[1] = target: T1, anti-VEGF/ANG2 antibody (IgG1 subclass with mutations P329G/L234A/L235A/I253A/H310A/H435A); experiment: ELISA assay C, tracer FcγRI-Dig, target 50 ng/mL
T1 construct: Format of the bispecific antibody not described; Positions are EU numbers, not positions on the UniProt entry; also called sample 1; antibody 1

[2] = target: T2, anti-VEGF/ANG2 antibody (IgG1 subclass with mutations P329G/L234A/L235A); experiment: ELISA assay C, tracer FcγRI-Dig, target 50 ng/mL
T2 construct: Positions are EU numbers; also called sample 2; antibody 2

[3] = target: T3, anti-IGF-1R antibody (IgG1 subclass with mutations I253A/H310A/H435A); experiment: ELISA assay C, tracer FcγRI-Dig, target 50 ng/mL
T3 construct: Positions are EU numbers; also called sample 3; antibody 3

[4] = target: T4, anti-P-Selectin antibody (IgG4 subclass with mutations S228P/L235E); experiment: ELISA assay C, tracer FcγRI-Dig, target 50 ng/mL
T4 construct: Positions are EU numbers; also called sample 4; antibody 4

[5] = target: T5, anti-VEGF/ANG2 antibody (wild-type IgG1 subclass) (UniProt P01857-1 1-330 = IgG part); experiment: ELISA assay C, tracer FcγRI-Dig, target 50 ng/mL
T5 construct: also called sample 5; antibody 5

[6] = target: T1, anti-VEGF/ANG2 antibody (IgG1 subclass …); experiment: ELISA assay B, tracer M1.7.10-Dig, target 3 ng/mL
Protocol: (§1) Biotinylated anti-PG Fc-region antibody or biotinylated anti-AAA Fc-region antibody, respectively, was bound to the wells of a streptavidin-coated multi-well plate (SA-MTP) to produce a capture plate. Excess of unbound antibody was removed by washing. Sample/standard antibodies spiked in human and cynomolgus monkey serum (10% final concentration) was added to wells of the SA-MTP multi-well plate coated with the capture plate and incubated for 1 hour at room temperature. After washing, the wells were incubated with digoxygenylated anti-human kappa antibody M1.7.10 (see e.g. WO 2011/048043, incorporated herein by reference). After washing the bound digoxygenylated anti-human kappa antibody complex was incubated with a horseradish peroxidase (HRP) labelled anti-digoxygenin antibody. After another washing step, an ABTS solution was added to the wells and incubated. The product of the color reaction was measured by Elisa reader at 405 nm wavelength (reference wavelength: 490 nm). Absorbance values of each sample or standard were determined in triplicates.

[7] = target: T3, anti-IGF-1R antibody (IgG1 subclass …); experiment: ELISA assay B, tracer M1.7.10-Dig, target 6 ng/mL
Protocol: as §1

[8] = target: T4, anti-P-Selectin antibody (IgG4 subclass …); experiment: ELISA assay B, tracer M1.7.10-Dig, target 6 ng/mL
Protocol: as §1

[9] = target: T1, anti-VEGF/ANG2 antibody (IgG1 subclass …); experiment: ELISA assay B, tracer M1.7.10-Dig, target 13 ng/mL
Protocol: as §1

[10] = target: T2, anti-VEGF/ANG2 antibody (IgG1 subclass …); experiment: ELISA assay B, tracer M1.7.10-Dig, target 13 ng/mL
Protocol: as §1

[11] = target: T3, anti-IGF-1R antibody (IgG1 subclass …); experiment: ELISA assay B, tracer M1.7.10-Dig, target 13 ng/mL
Protocol: as §1

[12] = target: T4, anti-P-Selectin antibody (IgG4 subclass …); experiment: ELISA assay B, tracer M1.7.10-Dig, target 13 ng/mL
Protocol: as §1

[13] = target: T5, anti-VEGF/ANG2 antibody (wild-type IgG1 …); experiment: ELISA assay B, tracer M1.7.10-Dig, target 13 ng/mL
Protocol: as §1

[14] = target: T1, anti-VEGF/ANG2 antibody (IgG1 subclass …); experiment: ELISA assay C, tracer FcγRI-Dig, target 0 ng/mL (blank)
[15] = target: T2, anti-VEGF/ANG2 antibody (IgG1 subclass …); experiment: as above
[16] = target: T3, anti-IGF-1R antibody (IgG1 subclass …); experiment: as above
[17] = target: T4, anti-P-Selectin antibody (IgG4 subclass …); experiment: as above
[18] = target: T5, anti-VEGF/ANG2 antibody (wild-type IgG1 …); experiment: as above
[19] = target: T1, anti-VEGF/ANG2 antibody (IgG1 subclass …); experiment: ELISA assay B, tracer M1.7.10-Dig, target 0 ng/mL (blank)
Protocol: as §1

[20] = target: T2, anti-VEGF/ANG2 antibody (IgG1 subclass …); experiment: as above
Protocol: as §1

[21] = target: T3, anti-IGF-1R antibody (IgG1 subclass …); experiment: as above
Protocol: as §1

[22] = target: T4, anti-P-Selectin antibody (IgG4 subclass …); experiment: as above
Protocol: as §1

[23] = target: T5, anti-VEGF/ANG2 antibody (wild-type IgG1 …); experiment: as above
Protocol: as §1

B1: anti-PG variant Fc-region antibody M1.3.17 (antibody, V domains shown)
VH: EVKLLESGGGLVQPGGSLKLSCAASGIDFRRYWMNWVRQAPGKGLEWIGEIDPDSSTINYTPSLKDKFIISRDNAKNTMYLQMRKVRSEDTALYYCARPYDYGAWFAYWGQGTLVTVSA
VL: QAVVTQESALTTSPGETVTLTCRSTTGAVTTSNYANWVQEKPDHLFTGLIGGTNKRAPGVPARFSGSLIGDKAALTITGAQTEDEAIYFCALWYSDHWVFGGGTKLTVL
notes: Monomeric, bivalent full-length antibody with murine variable domains; Biotinylated when used as capture antibody; also called anti-PG antibody clone 1.3.17; M1.3.17-Bi
signal [OD405 nm] [1]: 1.17 OD405 nm | signal [OD405 nm] [2]: 1.21 OD405 nm | signal [OD405 nm] [3]: 1.21 OD405 nm | signal [OD405 nm] [4]: 1.15 OD405 nm | signal [OD405 nm] [5]: 1.16 OD405 nm | signal [OD405 nm] [6]: 0.036 OD405 nm | signal [OD405 nm] [7]: 0.045 OD405 nm | signal [OD405 nm] [8]: 0.048 OD405 nm | signal [OD405 nm] [9]: 0.034 OD405 nm | signal [OD405 nm] [10]: 0.217 OD405 nm | signal [OD405 nm] [11]: 0.044 OD405 nm | signal [OD405 nm] [12]: 0.047 OD405 nm | signal [OD405 nm] [13]: 0.042 OD405 nm | signal [OD405 nm] [14]: 1.18 OD405 nm | signal [OD405 nm] [15]: 1.23 OD405 nm | signal [OD405 nm] [16]: 1.22 OD405 nm | signal [OD405 nm] [17]: 1.19 OD405 nm | signal [OD405 nm] [18]: 1.2 OD405 nm | signal [OD405 nm] [19]: 0.035 OD405 nm | signal [OD405 nm] [20]: 0.038 OD405 nm | signal [OD405 nm] [21]: 0.045 OD405 nm | signal [OD405 nm] [22]: 0.049 OD405 nm | signal [OD405 nm] [23]: 0.043 OD405 nm

B2: anti-PG variant Fc-region antibody M1.7.24 (monomeric, bivalent) (antibody, V domains shown)
VH: EVKLLESGGGLVQPGGSLKLSCAASGFDFSRYWMNWVRQAPGKGLEWIGEITPDSSTINYTPSLKDKFIISRDNAKNTLYLQMIKVRSEDTALYYCVRPYDYGAWFASWGQGTLVTVSA
VL: QAVVTQESALTTSPGETVTLTCRSSTGAVTTSNYANWVQEKPDHLFTGLIGGTNKRAPGVPARFSGSLIGDKAALTITGAQTEDEAIYFCALWYSNHWVFGGGTKLTVL
notes: Full-length Y-shaped antibody with murine variable domains; Biotinylated when used as capture antibody; also called anti-PG antibody clone 1.7.24; M1.7.24-Bi
signal [OD405 nm] [1]: 0.084 OD405 nm | signal [OD405 nm] [2]: 0.094 OD405 nm | signal [OD405 nm] [3]: 0.095 OD405 nm | signal [OD405 nm] [4]: 0.066 OD405 nm | signal [OD405 nm] [5]: 0.066 OD405 nm | signal [OD405 nm] [6]: 0.04 OD405 nm | signal [OD405 nm] [7]: 0.039 OD405 nm | signal [OD405 nm] [8]: 0.037 OD405 nm | signal [OD405 nm] [9]: 0.053 OD405 nm | signal [OD405 nm] [10]: 3.15 OD405 nm | signal [OD405 nm] [11]: 0.043 OD405 nm | signal [OD405 nm] [12]: 0.037 OD405 nm | signal [OD405 nm] [13]: 0.04 OD405 nm | signal [OD405 nm] [14]: 0.076 OD405 nm | signal [OD405 nm] [15]: 0.092 OD405 nm | signal [OD405 nm] [16]: 0.086 OD405 nm | signal [OD405 nm] [17]: 0.076 OD405 nm | signal [OD405 nm] [18]: 0.073 OD405 nm | signal [OD405 nm] [19]: 0.049 OD405 nm | signal [OD405 nm] [20]: 0.046 OD405 nm | signal [OD405 nm] [21]: 0.04 OD405 nm | signal [OD405 nm] [22]: 0.035 OD405 nm | signal [OD405 nm] [23]: 0.039 OD405 nm

B3: anti-AAA variant Fc-region antibody M1.6.22 (antibody, V domains shown)
VH: EVQLVESGGDLVKPGGSLKLSCAASGFTFSSYGMSWVRQTPDKRLEWVATISSGGSYIYYPDSVKGRFTISRDNAKNTLYLQMSSLKSEDTAMYYCARLGMITTGYAMDYWGQGTSVTVSS
VL: DVLMTQTPLSLPVSLGDQASISCRSSQTIVHSTGHTYLEWFLQKPGQSPKLLIYKVSNRFSGVPDRFSGSGSGTDFTLKISRVEAEDLGVYYCFQGSHVPYTFGGGTKLEIK
notes: Murine variable domains; also called M1.6.22-Bi
signal [OD405 nm] [1]: 0.077 OD405 nm | signal [OD405 nm] [2]: 0.057 OD405 nm | signal [OD405 nm] [3]: 1.06 OD405 nm | signal [OD405 nm] [4]: 0.054 OD405 nm | signal [OD405 nm] [5]: 0.067 OD405 nm | signal [OD405 nm] [6]: 0.039 OD405 nm | signal [OD405 nm] [7]: 2.73 OD405 nm | signal [OD405 nm] [8]: 0.04 OD405 nm | signal [OD405 nm] [9]: 0.041 OD405 nm | signal [OD405 nm] [10]: 0.066 OD405 nm | signal [OD405 nm] [11]: 2.85 OD405 nm | signal [OD405 nm] [12]: 0.042 OD405 nm | signal [OD405 nm] [13]: 0.046 OD405 nm | signal [OD405 nm] [14]: 0.077 OD405 nm | signal [OD405 nm] [15]: 0.064 OD405 nm | signal [OD405 nm] [16]: 0.069 OD405 nm | signal [OD405 nm] [17]: 0.077 OD405 nm | signal [OD405 nm] [18]: 0.069 OD405 nm | signal [OD405 nm] [19]: 0.047 OD405 nm | signal [OD405 nm] [20]: 0.038 OD405 nm | signal [OD405 nm] [21]: 0.037 OD405 nm | signal [OD405 nm] [22]: 0.038 OD405 nm | signal [OD405 nm] [23]: 0.037 OD405 nm

Reference: US20240410900A1 (Hoffmann-La Roche, published 2024)
